{"source": "paper PMC6599006", "about": "(Scientific Reports, 2019)", "binders": {"B1": {"name": "DP1 (peptide)", "peptide": "EHEEIFMESKGWR", "notes": "designed with the Miyazawa-Jernigan potential, one by one residue design, 13 residues; also called designed peptide DP1; source: synthetic peptide, without caps, at least 95% purity (Toray Research Center Inc.)"}, "B2": {"name": "DP2 (peptide)", "peptide": "EDEEGNDSDEHEE", "notes": "designed with the Miyazawa-Jernigan potential, one by one residue design, 13 residues; also called designed peptide DP2; source: synthetic peptide, without caps, at least 95% purity (Toray Research Center Inc.)"}, "B3": {"name": "DP3 (peptide)", "peptide": "DEHEEIFMESKGWRDR", "notes": "designed with the Miyazawa-Jernigan potential, one by one residue design, 16 residues; also called designed peptide DP3; source: synthetic peptide, without caps, at least 95% purity (Toray Research Center Inc.)"}, "B4": {"name": "DP4 (peptide)", "peptide": "DHIEDEEGNDSDEHEE", "notes": "designed with the Miyazawa-Jernigan potential, one by one residue design, 16 residues; also called designed peptide DP4; source: synthetic peptide, without caps, at least 95% purity (Toray Research Center Inc.)"}, "B5": {"name": "DP5 (peptide)", "peptide": "EEEEDNNDDDEEE", "notes": "designed with the Miyazawa-Jernigan potential, one by three residue design, 13 residues; also called designed peptide DP5; source: synthetic peptide, without caps, at least 95% purity (Toray Research Center Inc.)"}, "B6": {"name": "DP6 (peptide)", "peptide": "EEEEEDNNDDDEEEWF", "notes": "designed with the Miyazawa-Jernigan potential, one by three residue design, 16 residues; designed target is residues 369-384 of p53; also called designed peptide DP6; source: synthetic peptide, without caps, at least 95% purity (Toray Research Center Inc.)"}}, "data": [{"biological_target": "T1, CT peptide (residues 367–393 of human p53) labeled with FAM at the N-terminus (human, UniProt P04637 367-393, FAM at the N-terminus)", "T1 construct": "p53, human, residues 367-393 (C-terminal domain); also called CT peptide of p53; monomeric CT domain of p53; source: synthetic peptide, without caps, at least 95% purity (Toray Research Center Inc.)", "T1 sequence (P04637 367-393)": "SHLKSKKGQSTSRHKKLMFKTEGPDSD", "test": "fluorescence polarisation; fluorescence anisotropy; nonlabeled peptide titrated into 5 nM FAM-labeled CT peptide; 25 °C; 20 mM HEPES, 0.5 mM EDTA, 1 mM DTT, 0.2 mg/mL BSA, pH 7.9; in the absence of salt; apparent dissociation constant, one by one binding fit", "conditions": "both partners purified", "units": {"Kd": "µM"}, "values": [{"binder": "B1", "Kd": 60}, {"binder": "B2", "Kd": 23}, {"binder": "B3", "Kd": 550}, {"binder": "B4", "Kd": 9}, {"binder": "B5", "Kd": 3.2}, {"binder": "B6", "Kd": 1.2}]}]}
